Positions count from the first letter of the chain named.
B1: XA8635: Mor1-specific VHH, SEQ ID NO: 5, Profile II, binds extracellular part and orthosteric pocket (protein, listed as Lama glama)
VHH: QVQLVESGGGLVQAGGSLRLSCAASGSISSISTMGWYRQAPGNERELVAAITSGGSTNYADSVKGRFTISRDNAKNTVYLQMNSLKPEDTAVYYCNFKYYSGSYFYKSEYDYWGQGTQVTVSSAAAHHHHHHGAAEQKLISEEDLNGAA
B2: XA8727: Mor1-specific VHH, SEQ ID NO: 6, Profile III, intracellular binder (protein, listed as Lama glama)
VHH: QVQLVESGGGLVQAGGSLRLSCAASGFTFDDYAIAWFRQAPGKEREGVSCISSSDGSTYYADSVKGRFTISNDNAKNTVYLQMNSLKPEDTAVYYCAADLSRSCGRGYRYLEVWGQGTQVTVSSAAAHHHHHHGAAEQKLISEEDLNGAA
B3: XA8633: Mor1-specific VHH, SEQ ID NO: 1, Profile I, candidate G-protein mimicking, active state stabilizing (protein, listed as Lama glama)
VHH: QVQLVESGGGLVRPGGSRRLSCVDSERTSYPMGWFRRAPGKEREFVASITWSGIDPTYADSVADRFTISRDVANNTLYLQMNSLKHEDTAVYYCAARAPVGQSSSPYDYDYWGQGTQVTVSSAAAHHHHHHGAAEQKLISEEDLNGAA
B4: XA8641: Mor1-specific VHH, SEQ ID NO: 3, Profile I (protein, listed as Lama glama)
VHH: B3 VHH with R18L, E26G
B5: XA8643: Mor1-specific VHH, SEQ ID NO: 4, Profile I (protein, listed as Lama glama)
VHH: B3 VHH with R18L
B6: XA8639: Mor1-specific VHH, SEQ ID NO: 2, Profile I, G-protein mimetic (protein, listed as Lama glama)
VHH: B3 VHH with R18L, I68T
B7: XA9644: Profile III VHH of a new sequence family, SEQ ID NO: 74 (protein, listed as Lama glama)
VHH: QVQLVESGGGLVRPGGSLRLSCVDSERIFSISAMGWYRQAPGKQRELVATITSGGTTNYADSVKGRFTISGDTAKNMVYLQMSSLKPEDTAVYYCAADMEVWDYTDGDDDDYWGQGTQVTVSSAAAHHHHHHGAAEQKLISEEDLNGAA
B8: bivalent XA8635: genetic head to tail fusion of XA8635, separated by a 9GS linker, SEQ ID NO: 49 (protein)
chain: QVQLVESGGGLVQAGGSLRLSCAASGSISSISTMGWYRQAPGNERELVAAITSGGSTNYADSVKGRFTISRDNAKNTVYLQMNSLKPEDTAVYYCNFKYYSGSYFYKSEYDYWGQGTQVTVSSGGGGSGGGSQVQLQESGGGLVQAGGSLRLSCAASGSISSISTMGWYRQAPGNERELVAAITSGGSTNYADSVKGRFTISRDNAKNTVYLQMNSLKPEDTAVYYCNFKYYSGSYFYKSEYDYWGQGTQVTVSSAAAEQKLISEEDLNGAAHHHHHH

Tests used:
[1] = tested on: β-arrestin1 or β-arrestin2; conditions: cell culture assays; cited from earlier work
[2] = tested on: inflammatory pain model in rat; conditions: cited from earlier work
truncDelta mMor1 = target: T1, truncDelta mMor1 (Mus musculus, UniProt P42866); assay: ELISA of VHH binding to truncDelta mMor1 reconstituted in liposomes; conditions: periplasmic extracts, 10 μM Dmt1-Dalda
T1 construct: N- and C-termini are removed by enzymatic proteolysis, resulting in truncDelta mMor1; TEV cleavage site ENLYFQ (after G51 of P42866) (internal); made in house; host or cells: Sf9 insect cells (baculovirus); purified and reconstituted into lipid vesicles

Mor1 [3] = target: T2, Mor1 (Mus musculus, UniProt P42866); assay: Affinity of XA8635 for ligand-free Mor1; conditions: read-out: Ki of binding to the receptor
human Mor1 = target: T3, human Mor1 (Homo sapiens, UniProt P35372); assay: Flow cytometry binding of mono- and bivalent XA8635 to Mor overexpressing CHO cells; conditions: for Binding to Mor overexpressing CHO cells vs parental non-transfected CHO cells: absence of any Mor1 ligand
T3 construct: expressed in transfected cells; host or cells: CHO cells

Delta mMor1 [4] = target: T4, Delta mMor1 (Mus musculus, UniProt P42866, INS358LEVLFQGP/INS51ENLYFQ); assay: Radioligand displacement by XA8635 on Delta mMor1/Sf9 membranes; format: binding; conditions: 7 μg Delta mMor1/Sf9 membranes, 1 nM radioligand, no agonist
T4 construct: expressed in transfected cells; host or cells: Sf9 insect cells, baculovirus-infected (BestBac)
Procedure: (§1) A radioligand competition assay was performed as described in Example 6 with minor modifications: 5 μg of WT human hMor1/CHO membranes or 7 μg of Delta mMor1/Sf9 membranes were incubated with a concentration range of purified XA8635 and 1 nM of the radioligand (no agonist was added). The mixture was incubated for 1 hour at RT and after washing, filter bound radioligand was measured.

WT human Mor1 = target: T5, WT human Mor1 (Homo sapiens, UniProt P35372); assay: Radioligand displacement by XA8635 on WT human hMor1/CHO membranes; format: binding; conditions: 5 μg WT human hMor1/CHO membranes, 1 nM radioligand, no agonist
T5 construct: purchased Perkin Elmer ES-542-M400UA; host or cells: CHO cells overexpressing wild-type human Mor1 (membranes)
Procedure: as §1

Delta mMor1 [5] = target: T4, Delta mMor1; assay: Flow cytometry binding of VHHs to Delta mMor1/Sf9 cells with or without Mor1 ligand; conditions: for Side of Mor1 bound (intact versus permeable Sf9 cells, Topro3 gating) / Flow cytometry binding profile on Delta mMor1/Sf9 cells: periplasmic extracts; for Flow cytometry binding profile on Delta mMor1/Sf9 cells: no ligand, 20 μM Dmt1-Dalda or 20 μM naloxone, mock GPCR Sf9 as control
Mor1 [6] = target: T2, Mor1; format: binding

T3 sequence (P35372 whole entry): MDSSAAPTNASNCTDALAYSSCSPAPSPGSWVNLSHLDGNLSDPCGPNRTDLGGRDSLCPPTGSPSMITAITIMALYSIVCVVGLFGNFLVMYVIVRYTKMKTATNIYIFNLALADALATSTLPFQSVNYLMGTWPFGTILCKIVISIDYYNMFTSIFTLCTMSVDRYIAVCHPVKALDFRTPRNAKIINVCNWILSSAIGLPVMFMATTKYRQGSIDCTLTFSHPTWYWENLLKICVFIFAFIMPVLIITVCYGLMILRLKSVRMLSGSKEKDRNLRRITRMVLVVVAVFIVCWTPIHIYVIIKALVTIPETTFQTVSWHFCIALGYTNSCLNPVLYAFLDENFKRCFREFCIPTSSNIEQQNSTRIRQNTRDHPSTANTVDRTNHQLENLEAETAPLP
T5 sequence (P35372 whole entry): as above

Row | Molecule | Binding to truncDelta mMor1 liposomes in ELISA (truncDelta mMor1) | Side of Mor1 bound (intact versus permeable Sf9 cells, Topro3 gating) (Delta mMor1 [5]) | Flow cytometry binding profile on Delta mMor1/Sf9 cells (Delta mMor1 [5]) | further results
1 | COC(=O)[C@@H]1C[C@H](OC(=O)c2ccccc2)C(=O)[C@H]2[C@@]1(C)CC[C@H]1C(=O)O[C@H](c3ccoc3)C[C@]21C [herkinorin] | – | – | – | Recruitment of β-arrestin1 or β-arrestin2 [1]: does not recruit β-arrestin1 or β-arrestin2; Antinociception in morphine-tolerant rats ([2]; morphine-tolerant rats): produces antinociception in morphine-tolerant rats; Formalin-induced flinching ([2]; rat, 10 mg/kg, i.pl., reversed by naloxone): reduces formalin-induced flinching to the same degree as morphine; Antinociceptive tolerance ([2]; repeated treatment over a 5-day period): does not develop
2 | B1 | confirmed to bind Mor1 in ELISA | extracellular part of the receptor | Profile II | Ki (Mor1 [3]): ~12 nM; Binding to Mor overexpressing CHO cells vs parental non-transfected CHO cells (human Mor1): dose-dependent specific binding; Radioligand displacement (Delta mMor1 [4]): dose-dependent increase in radioligand displacement; Radioligand displacement (WT human Mor1): dose-dependent increase in radioligand displacement; Fluorescence profile of purified VHH compared to the one obtained with periplasm (Delta mMor1 [5]; 1 μM purified VHH): identical fluorescence profile; Binding to Sf9 cells overexpressing Mor1 in presence of Mor1 ligand (agonist or antagonist) (Delta mMor1 [5]; 1 μM purified VHH, intact and permeable cells): loses its ability to specifically bind
3 | B2 | confirmed to bind Mor1 in ELISA | intracellular part of Mor1 | Profile III | –
4 | B3 | confirmed to bind Mor1 in ELISA | intracellular epitopes | Profile I | Fluorescence profile of purified VHH compared to the one obtained with periplasm (Delta mMor1 [5]; 1 μM purified VHH): identical fluorescence profile
5 | B4 | confirmed to bind Mor1 in ELISA | intracellular epitopes | Profile I | –
6 | B5 | confirmed to bind Mor1 in ELISA | intracellular epitopes | Profile I | –
7 | B6 | confirmed to bind Mor1 in ELISA | intracellular epitopes | Profile I | Enhancement of affinity for BU72 (Mor1 [6]): 176 fold
8 | B7 | – | – | Profile III | –
9 | B8 | – | – | – | Increased fluorescence versus monovalent XA8635 (human Mor1; 1 μM): approximately 34%; Binding to Mor overexpressing CHO cells vs parental non-transfected CHO cells (human Mor1): dose-dependent specific binding
